± gives the standard deviation of the averaged measurements.
Tested on: Saccharomyces cerevisiae
Assay: protein stability index of tFT-peptide fusion (C-terminal peptide) (PSI (0-1 scale)); higher = more stable (slower turnover)
Details: temperature: 30 C
Protocol: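 MPS profiling in S. cerevisiae of the yeast C-terminome library: the last 12 aa of each annotated ORF are fused to the C-terminus of a sfGFP-mCherry timer, after a GGGS linker. Cells are FACS-sorted into 8 mCherry/sfGFP bins and deep-sequenced. PSI runs from 0 (unstable) to 1 (stable); wild type and das1Δ backgrounds, two technical replicates each.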

[1] = genetic background: das1 deletion

| Sequence | protein stability index [1] | protein stability index (genetic background: wild type) |
| --- | --- | --- |
| KLKRAKRKGISE [IMP21 C-terminal 12 aa] | 0.693 ± 0.013 | 0.692 ± 0.012 |
| KLRAKRLAKGGR [RPG1 C-terminal 12 aa] | 0.696 ± 0.012 | 0.705 ± 0.011 |
| KNFRNQYSLHPP [YHR095W C-terminal 12 aa] | 0.7047 ± 0.0045 | 0.6752 ± 0.0034 |
| KNRRGNRSGYRR [THO1 C-terminal 12 aa] | 0.703 ± 0.0025 | 0.689 ± 0.024 |
| KPIETVFDEETV [YIP3 C-terminal 12 aa] | 0.697 ± 0.018 | 0.72 ± 0.041 |
| KQGPKNLKKTKK [TAF13 C-terminal 12 aa] | 0.704 ± 0.0098 | 0.679 ± 0.0097 |
| KQQSWLRRVIGY [ENB1 C-terminal 12 aa] | 0.696 ± 0.015 | 0.688 ± 0.038 |
| KQSKKKTSFTRF [YBL028C C-terminal 12 aa] | 0.699 ± 0.036 | 0.66155 ± 0.00019 |
| KRHLTPAVELDY [PRP40 C-terminal 12 aa] | 0.671 ± 0.008 | 0.6566 ± 0.001 |
| KRKFLGEHRKTL [TOK1 C-terminal 12 aa] | 0.713 ± 0.01 | 0.67338 ± 0.00061 |
| KRLIGIAEATLN [SEC31 C-terminal 12 aa] | 0.666 ± 0.032 | 0.667 ± 0.014 |
| KRNFCPFHDAVF [PIB1 C-terminal 12 aa] | 0.712 ± 0.01 | 0.716 ± 0.043 |
| KRQGRTLYGFGG [YBR009C; YNL030W C-terminal 12 aa] | 0.7013 ± 0.0062 | 0.693 ± 0.021 |
| KSGPEWIAENRD [TUM1 C-terminal 12 aa] | 0.716 ± 0.023 | 0.7166 ± 0.0051 |
| KSLWDYVKKNTE [TAF14 C-terminal 12 aa] | 0.689 ± 0.046 | 0.712 ± 0.019 |
| KSTNCCLIYDST [KKQ8 C-terminal 12 aa] | 0.7052 ± 0.00093 | 0.675 ± 0.036 |
| KSVVVRSKEKQS [GAA1 C-terminal 12 aa] | 0.7002 ± 0.0014 | 0.441 ± 0.014 |
| KTETLSVPRILT [YBR090C C-terminal 12 aa] | 0.689 ± 0.01 | 0.722 ± 0.059 |
| KTIDNLKALMKN [PFD1 C-terminal 12 aa] | 0.696 ± 0.0081 | 0.721 ± 0.019 |
| KTLWSRFIEHFV [MIM2 C-terminal 12 aa] | 0.746 ± 0.022 | 0.671 ± 0.023 |
| KTVGKLVLEIPQ [ZTA1 C-terminal 12 aa] | 0.689 ± 0.033 | 0.701 ± 0.051 |

| Sequence | protein stability index [1] | protein stability index (genetic background: wild type) |
| --- | --- | --- |
| KTVIENPLEMLL [LAT1 C-terminal 12 aa] | 0.6972 ± 0.002 | 0.694 ± 0.025 |
| KVEFSKSETKTL [MSL1 C-terminal 12 aa] | 0.71 ± 0.018 | 0.6736 ± 0.0014 |
| KVHQGKYNGPGL [AI2 C-terminal 12 aa] | 0.69085 ± 0.00022 | 0.727 ± 0.037 |
| KVKRLMDFLEED [NSL1 C-terminal 12 aa] | 0.678 ± 0.0098 | 0.694 ± 0.024 |
| KWQARQRGLQRF [PMP1 C-terminal 12 aa] | 0.69535 ± 0.00066 | 0.704 ± 0.018 |
| KWVGQYPVPGDI [SHM1 C-terminal 12 aa] | 0.693 ± 0.0071 | 0.687 ± 0.04 |
| KYFADLTQSITK [YBR242W C-terminal 12 aa] | 0.719 ± 0.051 | 0.687 ± 0.029 |
| LADSKHCSGLHK [ASF2 C-terminal 12 aa] | 0.6837 ± 0.0028 | 0.703 ± 0.0086 |
| LAFSGGLANSIA [DSE4 C-terminal 12 aa] | 0.712 ± 0.00097 | 0.677 ± 0.024 |
| LALYKKAYGIEF [STP2 C-terminal 12 aa] | 0.686 ± 0.031 | 0.6671 ± 0.0058 |
| LAPPPQKQSSSD [GRH1 C-terminal 12 aa] | 0.758 ± 0.058 | 0.729 ± 0.029 |
| LASEAAVGCNKS [YKL156C-A C-terminal 12 aa] | 0.688 ± 0.0092 | 0.745 ± 0.055 |
| LASKHSQYTSPQ [RGT2 C-terminal 12 aa] | 0.72 ± 0.0086 | 0.662 ± 0.014 |
| LCMSCGYVSAGK [YMR173W-A C-terminal 12 aa] | 0.697 ± 0.016 | 0.749 ± 0.046 |
| LDDIEKDLRANA [SWI4 C-terminal 12 aa] | 0.7 ± 0.021 | 0.679 ± 0.012 |
| LDISASLEKIAT [FMP52 C-terminal 12 aa] | 0.677 ± 0.018 | 0.682 ± 0.011 |
| LECTPIINLFIV [MNL1 C-terminal 12 aa] | 0.644 ± 0.0069 | 0.13125 ± 2.3e-05 |
| LEDSTRVYSNLM [ARP1 C-terminal 12 aa] | 0.693 ± 0.007 | 0.6835 ± 0.0043 |
| LEEELTKIGLLP [GRX8 C-terminal 12 aa] | 0.706 ± 0.018 | 0.698 ± 0.0098 |
| LEKLLKTVLNTL [ORC2 C-terminal 12 aa] | 0.69009 ± 0.00049 | 0.696 ± 0.028 |
